The record followed here is the supplement of paper PMC10567573.

B1: MLL5 (parent)
chain: HDDGYMICCDKCSVWQHIDCMGID
B2: C19orf51 (parent)
chain: FAPQTGARPSETFARFCKSQESAL
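Also: lentivirally expressed fusions sorted by FACS into six bins by GFP to DsRed ratio, PSI derived from sequencing read proportions per bin multiplied by bin number.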

One data set covers variants of B1. The data set is described as follows: protein stability index of a GFP-peptide fusion (GPS, HEK-293T) (PSI 1-6); higher = more stable. The following applies: c terminus: a fixed tail appended.
Regarding HDDGYCICCDKCSVWQHIDCMGID, the protein stability index worked out at 3.2. With HDDGYMICCDKCSVWQHIDCMCID, the protein stability index stood at 3.79.

In the case of HDDGYMICCKKCSVWQHIDCMGID, the protein stability index was determined as 2.51. Consider HDDGYMICCQKCSVWQHIDCMGID, for which the protein stability index was 2.29. For the variant HDDGYMICCDKPSVWQHIDCMGID, the protein stability index amounted to 2.56.

On to HHDGYMICCDKCSVWQHIDCMGID, for which the protein stability index came to 2.87.

On to HPDGYMICCDKCSVWQHIDCMGID, for which the protein stability index amounted to 2.16. For HDDGYMICCDKCSVWQHRDCMGID, the protein stability index turned out to be 3.32. On to HDDGYMICCDKCSVWQHSDCMGID, for which the protein stability index was 3.06. Turning to HDDGYMICCDKCSVWQHIECMGID, the protein stability index is 2.57.

With HDDGYMICCDKCSVCQHIDCMGID, the protein stability index worked out at 3.49. On the same count and under the same terms, to HDDGYMICCDKCSVGQHIDCMGID belongs 4.18; to HDDGYMICCDKCSVLQHIDCMGID, 3.16; to HDDGYMICVDKCSVWQHIDCMGID, 2.67.

The variants in a further data set derive from B2. The description is as above. The following applies: c terminus: a fixed tail appended.
On to FAPQTGARPSETFARFCKSQESAD, for which the protein stability index turned out to be 1.88. Consider FAPQTGARPSETFARFCKSQESAK, for which the protein stability index worked out at 2.02. Consider FAPQTGARPSETFARFCKSQESAT, for which the protein stability index was 2.27.

As to FAPQTGARPSETFARFCKSQESAE, the protein stability index came to 3.37.

FAPQTGARPSETFARFCKSQESAM: the protein stability index was 1.56. As for FAPQTGARPSETFARFCKSQESAA, the protein stability index worked out at 3.59. In the case of FAPQTGARPSETFARFCKSQESAR, the protein stability index turned out to be 4.53.

FAPQTGARPSETFARFCKSQESAY: the protein stability index came out at 3.96. On to FAPQTGARPSETFARFCKSQESAQ, for which the protein stability index worked out at 1.23. FAPQTGARPSETFARFCKSQESAF: the protein stability index came out at 3.1.

Regarding FAPQTGARPSETFARFCKSQESAH, the protein stability index turned out to be 1.83.

In the case of FAPQTGARPSETFARFCKSQESAG, the protein stability index turned out to be 2.81.

Regarding FAPQTGARPSETFARFCKSQESAC, the protein stability index is 3.32. Regarding FAPQTGARPSETFARFCKSQESAN, the protein stability index was 2.58. As to FAPQTGARPSETFARFCKSQESAP, the protein stability index is 1.23. Turning to FAPQTGARPSETFARFCKTQESAL, the protein stability index is 1.66. Still for that read-out and setting: to FAPQTGARPSETFARFCKWQESAL belongs 1.75.

With FAPQTGARPSETFARFCKRQESAL, the protein stability index worked out at 5.04. Take FAPQTGARPSETFARFCKSQESQL: the protein stability index came out at 1.82.

In the case of FAPQTGARPSETFARFCKSQESPL, the protein stability index came out at 2.46. With FAPQTGARPSETFARFCKSQESHL, the protein stability index stood at 3.08.

Consider FAPQTGARPSETFARFCKSQESLL, for which the protein stability index amounted to 2.84. Turning to FAPQTGARPSETFARFCKSQESML, the protein stability index is 2.11. Same read-out and setting: the same measure for FAPQTGARPSETFARFCKSQESRL: 3.52; for FAPQTGARPSETFARFCKSQESIL: 1.89. For FAPQTGARPSETFARFCKSQESKL, the protein stability index stood at 1.75.

FAPQTGARPSETFARFCKSQESWL: the protein stability index turned out to be 2.29. On the same count and under the same terms, the same measure for FAPQTGARPSETFARFCKSQESCL: 1.55; for FAPQTGARPSETFARFCKSQESGL: 2.32. For FAPQTGARPSETFARFCKSQESNL, the protein stability index came to 3.57. On to FAPQTGARPSETFARFCKSQESTL, for which the protein stability index was found to be 2.07. Same read-out and setting: the same measure for FAPQTGARPSETFARFCKSQESFL: 2.44; for FAPQTGARPSETFARFCKSQESVL: 1.68. Turning to FAPQTGARPSETFARFCKSQEGAL, the protein stability index was 3.57. Regarding FAPQTGARPSETFARFCKSQEKAL, the protein stability index was found to be 1.33. Regarding FAPQTGARPSETFARFCKSQEVAL, the protein stability index came out at 1.8. For the variant FAPQTGARPSETFARFCKSQEEAL, the protein stability index came out at 1.58.

As to FAPQTGARPSETFARFCKSQERAL, the protein stability index is 1.51.

With FAPQTGARPSETFARFCKSQELAL, the protein stability index is 2.08. Still for that read-out and setting: to FAPQTGARPSETFARFCKSQECAL belongs 2.31; to FAPQTGARPSETFARFCKSQEPAL, 3.4; to FAPQTGARPSETFARFCKSQEWAL, 1. The same measure, in the same setting: the same measure for FAPQTGARPSETFARFCKSQETAL: 1.88; for FAPQTGARPSETFARFCKSQEHAL: 1.98; for FAPQTGARPSETFARFCKSQEIAL: 3.24. On to FAPQTGARPSETFARFCKSQEYAL, for which the protein stability index came to 1.93. Regarding FAPQTGARPSETFARFCKSQEFAL, the protein stability index turned out to be 2.18.

FAPQTGARPSETFARFCKSQEDAL: the protein stability index was determined as 2.04.

In the case of FAPQTGARPSETFARFCKSDESAL, the protein stability index is 2.51.

As for FAPQTGARPSETFARFCKSFESAL, the protein stability index is 1.73. Same read-out and setting: the same measure for FAPQTGARPSETFARFCKSMESAL: 1.72; for FAPQTGARPSETFARFCKSNESAL: 1.76; for FAPQTGARPSETFARFCKSRESAL: 4.59. As for FAPQTGARPSETFARFCKSYESAL, the protein stability index worked out at 2.31. Still for that read-out and setting: to FAPQTGARPSETFARFCKSIESAL belongs 2.92; to FAPQTGARPSETFARFCKSGESAL, 1.84; to FAPQTGARPSETFARFCKSAESAL, 2.13. On to FAPQTGARPSETFARFCKSEESAL, for which the protein stability index worked out at 2.48. On the same count and under the same terms, to FAPQTGARPSETFARFCKSPESAL belongs 2.65; to FAPQTGARPSETFARFCKSLESAL, 1.65. For the variant FAPQTGARPSETFARFCKSCESAL, the protein stability index is 3. Take FAPQTGARPSETFARFCKSKESAL: the protein stability index came to 1.99. Regarding FAPQTGARPSETFARFCKSTESAL, the protein stability index came out at 3.01.

Consider FAPQTGARPSETFARFCKSVESAL, for which the protein stability index was found to be 1.73. Take FAPQTGARPSETFARFCKSHESAL: the protein stability index turned out to be 1.89. On to FAPQTGARPSETFARFCKSQQSAL, for which the protein stability index was 2.79. As to FAPQTGARPSETFARFCKSQPSAL, the protein stability index was 1.88.

As to FAPQTGARPSETFARFCKSQWSAL, the protein stability index turned out to be 3.29. As for FAPQTGARPSETFARFCKSQRSAL, the protein stability index is 4.11. FAPQTGARPSETFARFCKSQYSAL: the protein stability index amounted to 2.22. Take FAPQTGARPSETFARFCKSQMSAL: the protein stability index came out at 2.35. As to FAPQTGARPSETFARFCKSQCSAL, the protein stability index was found to be 1.97. Still for that read-out and setting: to FAPQTGARPSETFARFCKSQISAL belongs 1.97.

Turning to FAPQTGARPSETFARFCKSQASAL, the protein stability index came out at 2.86.

Take FAPQTGARPSETFARFCKSQDSAL: the protein stability index was 2.04. Still for that read-out and setting: the same measure for FAPQTGARPSETFARFCKSQGSAL: 3; for FAPQTGARPSETFARFCKSQHSAL: 3.63. Turning to FAPQTGARPSETFARFCKSQNSAL, the protein stability index is 1.79. On to FAPQTGARPSETFARFCKSQFSAL, for which the protein stability index worked out at 1.76. Regarding FAPQTGARPSETFARFCKSQKSAL, the protein stability index came to 1.85.
